{"source": "patent US20090271896A1", "about": "(SAMUEL ROBERTS NOBLE FOUNDATION, published 2009)", "key": {"[1]": {"biological_target": "T1, NbVIP2 (N. benthamiana VIP2) in pGAD424 (Nicotiana benthamiana, UniProt Q52JK6 1-603)", "T1 construct": "also called pGAD-NbVIP2; GenBank DQ000202", "T1 sequence": "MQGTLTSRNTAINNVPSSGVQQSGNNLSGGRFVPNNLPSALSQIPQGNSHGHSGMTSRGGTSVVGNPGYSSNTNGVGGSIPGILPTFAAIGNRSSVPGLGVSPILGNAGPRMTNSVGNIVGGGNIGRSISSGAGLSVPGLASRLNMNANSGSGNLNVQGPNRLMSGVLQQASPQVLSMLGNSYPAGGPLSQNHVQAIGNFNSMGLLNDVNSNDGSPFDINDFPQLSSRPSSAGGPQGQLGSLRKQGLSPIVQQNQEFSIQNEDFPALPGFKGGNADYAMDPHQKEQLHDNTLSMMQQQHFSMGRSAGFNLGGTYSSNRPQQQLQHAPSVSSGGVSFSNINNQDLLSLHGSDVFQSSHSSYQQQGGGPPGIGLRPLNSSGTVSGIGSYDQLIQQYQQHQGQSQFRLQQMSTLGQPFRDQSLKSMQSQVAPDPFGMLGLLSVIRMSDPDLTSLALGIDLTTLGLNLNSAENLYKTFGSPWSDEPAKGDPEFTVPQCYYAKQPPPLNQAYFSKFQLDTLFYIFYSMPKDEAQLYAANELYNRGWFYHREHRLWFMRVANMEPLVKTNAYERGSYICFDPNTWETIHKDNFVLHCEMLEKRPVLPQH", "assay": "yeast two-hybrid, growth on triple dropout (-Leu/-Trp/-His) plates"}, "[2]": {"biological_target": "T2, AtVIP2 (Arabidopsis VirE2-Interacting Protein 2), largest cDNA clone in pGAD424 (Arabidopsis thaliana, UniProt Q9FPW4 59-614)", "T2 construct": "also called At5g59710; GenBank AF295433", "T2 sequence": "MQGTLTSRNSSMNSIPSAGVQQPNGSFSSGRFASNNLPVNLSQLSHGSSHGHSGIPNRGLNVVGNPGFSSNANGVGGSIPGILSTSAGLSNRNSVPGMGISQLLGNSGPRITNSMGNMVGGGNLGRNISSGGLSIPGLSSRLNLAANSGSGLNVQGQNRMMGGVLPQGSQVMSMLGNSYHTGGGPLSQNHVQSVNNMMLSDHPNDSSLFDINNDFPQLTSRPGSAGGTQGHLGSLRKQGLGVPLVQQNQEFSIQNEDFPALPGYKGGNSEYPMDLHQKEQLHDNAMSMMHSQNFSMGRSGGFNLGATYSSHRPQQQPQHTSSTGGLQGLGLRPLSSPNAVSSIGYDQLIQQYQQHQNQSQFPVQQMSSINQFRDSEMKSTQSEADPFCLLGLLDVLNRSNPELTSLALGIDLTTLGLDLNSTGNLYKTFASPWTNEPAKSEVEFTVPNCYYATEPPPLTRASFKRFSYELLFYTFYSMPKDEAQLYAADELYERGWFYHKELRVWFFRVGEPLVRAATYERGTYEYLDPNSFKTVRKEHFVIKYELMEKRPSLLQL", "assay": "yeast two-hybrid, HIS3 and beta-galactosidase reporters"}}, "data": [{"binder": "human lamin C (other, also called pSTT-LaminC) SEEVVSREVSGIKAAYEAELGDARKTLDSVAKERARLQLELSKVREEFKELKARNTKKEGDLIAAQARLKDLEALLNSKEAALSTALSEKRTLEGELHDLRGQVAKLEAALGEAKKQLQDEMLRRVDAENRLQTMKEELDFQKNIYSEELRETKRRHETRLVEID", "values": [{"measurement": "binding result", "setting": "[1]", "result": "no binding"}, {"measurement": "binding result", "setting": "[2]", "result": "no binding"}]}]}
